The target in experiment [1] is Meiothermus taiwanensis LonA, wild type, full length (Meiothermus taiwanensis). The experiment is described as follows: cryo-EM structure; wild-type MtaLon 1 μM (as hexamer) incubated with 5 mM ADP overnight; single-particle reconstruction without symmetry.
Experiment [2] has the same target. The experiment is described as follows: cryo-EM structure; wild-type MtaLon 1 μM (as hexamer) without any nucleotide (MtaLon-Apo).
Experiment [3] shares this target. The experiment is described as above. This is another data set of the same source.
The target is the same in experiment [4]. The experiment is described as follows: cryo-EM structure; wild-type MtaLon 1 μM (as hexamer) incubated with 5 mM ADP overnight; single-particle reconstruction without symmetry. This is another data set of the same source.
Experiment [5] addresses MtaLon-M217A (Meiothermus taiwanensis). The experiment is described as follows: cryo-EM structure; MtaLon-M217A 1 μM (as hexamer) with 10 μM casein and 5 mM ADP, 3 h.
For experiment [6], the target named is MtaLon-S678A (Meiothermus taiwanensis). The experiment is described as follows: cryo-EM structure; MtaLon-S678A 1 μM (as hexamer) with 10 μM casein and 5 mM ADP, overnight.
Experiment [7] has the same target. The description is as above. The source holds these as a separate data set.
The target in experiment [8] is fluorescein isothiocyanate (FITC)-labeled casein (UniProt P02662). The experiment is described as follows: fluorescence polarisation; MtaLon samples serially diluted (5 µM to 0.01 µM) mixed with 1.25 µM FITC-casein, 1 mM ADP, 4 °C, 3 h; triplicates.
Chain of UniProt P02662 (P02662 16-214): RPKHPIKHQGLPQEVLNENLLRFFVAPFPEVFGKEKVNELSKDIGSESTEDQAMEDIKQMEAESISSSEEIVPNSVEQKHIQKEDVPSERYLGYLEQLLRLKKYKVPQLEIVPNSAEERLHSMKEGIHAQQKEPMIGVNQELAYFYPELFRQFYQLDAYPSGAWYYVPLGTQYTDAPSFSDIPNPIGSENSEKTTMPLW
In experiment [9] the target is MtaLon-Y224S (Meiothermus taiwanensis). The experiment is described as follows: cryo-EM structure; MtaLon-Y224S 1 μM (as hexamer) incubated with 5 mM ATPγS overnight.
Experiment [10] shares this target. The experiment is described as follows: cryo-EM structure; 10 μM ΔN-E613K and 5 mM ADP incubated with 1 μM MtaLon-Y224S at 4 °C for 1 h, mixture purified on Superose 6 Increase; 5+1 heteromeric complex.
Experiment [11] has as its target MtaLon-Y397A/S678A (Meiothermus taiwanensis). The experiment is described as follows: cryo-EM structure; MtaLon-Y397A/S678A 1 μM (as hexamer) with 10 μM casein and 5 mM ATPγS, 3 h.

Drawing on publication PMC10643698, this text covers stoichiometry N and Kd for 5 substances.

“And” between values parts separate entries of the source, which are not always exact repeats. Identical values can stand only once. Like-named read-outs stand apart in the source and are kept apart here.

Take “Meiothermus taiwanensis LonA, wild type, full length (enzyme)”: the stoichiometry N was 3 and 4 in experiment [1]; 3 and 4 in experiment [2]; 5 and 6 in experiment [3]; 5 and 6 in experiment [4].
With MtaLon-M217A (enzyme), the stoichiometry N in experiment [5] was 5 and 6.
Regarding MtaLon-S678A (enzyme), the stoichiometry N in experiment [6] is 6; in experiment [7] it was 5. In addition, the Kd in experiment [8] turned out to be 1.38 µM.
As to MtaLon-Y224S (enzyme), the stoichiometry N in experiment [9] was 5 and 6; in [10] it was 5 and 6.
With MtaLon-Y397A/S678A (enzyme), in experiment [11], the stoichiometry N was 5 and 6.
